Numbering of substitutions follows the chain as printed. In names and notes the source's numbering stands.
T1: recombinant human 14-3-3ζ protein (human), P63104
T1 chain: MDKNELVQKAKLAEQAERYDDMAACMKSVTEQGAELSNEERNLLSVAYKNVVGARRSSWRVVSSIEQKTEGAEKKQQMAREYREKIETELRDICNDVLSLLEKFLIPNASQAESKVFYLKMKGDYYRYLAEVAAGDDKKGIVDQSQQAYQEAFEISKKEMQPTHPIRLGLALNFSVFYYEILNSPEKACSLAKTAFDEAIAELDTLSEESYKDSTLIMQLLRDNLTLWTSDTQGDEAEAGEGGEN

B1: recombinant human 14-3-3ζ protein, P63104 1-245 (natural protein)
chain: T1 chain
B2: 14-3-3ζ mutant (K158R) (natural protein, UniProt P63104 1-245, looked up)
chain: T1 chain with K158R
notes: 14-3-3ζ with K158R

What was measured:
[1] = molecular target: T1, recombinant human 14-3-3ζ protein …; assay: AUC; 'sedimentation equilibration analysis'; 25 μM 14-3-3ζ incubated with or without PTA at 25 °C for 8 h, centrifuged at 20 °C and 60000 rpm for 7 h; c(s) by SEDPHAT; monomer to dimer; conditions: remark: other sources report otherwise
[2] = molecular target: the molecule itself; assay: cross-linking; 0.025 mM 14-3-3ζ incubated with or without PTA at 25 °C for 8 h, cross-linked with 1 mM disuccinimidyl suberate for 30 min (20 mM HEPES, 100 mM KCl, 1 mM dithiothreitol, pH 8.0), quenched with 50 mM Tris-HCl; SDS-PAGE with silver staining, and LC-MS

Row | Binder | percent dimer (with PTA) [1] [%] | percent dimer (without PTA) [1] [%] | stoichiometry N [1] | binding result [2]
1 | B1 | 77.5 | 69.1 | 2 | 
2 | B2 |  |  |  | binds

Source: article PMC6929985, “Allosteric regulation of protein 14-3-3ζ scaffold by small-molecule editing modulates histone H3 post-translational modifications” (Theranostics, 2020)
